The target of the assay is Grp78 (rat (endogenous in hippocampus)) (UniProt P06761). Briefly: co-IP; primary antibody on Protein A/G magnetic beads in PBS with 0.3% Triton X-100; hippocampal tissue of 3-month-old male rats (WT; APP KO or SNCA KO for comparison) homogenized in RIPA lysis buffer; lysate with beads overnight at 4 °C; four washes with PBST; western blotting.
Grp78 (rat (endogenous in hippocampus)), sequence (P06761 19-654): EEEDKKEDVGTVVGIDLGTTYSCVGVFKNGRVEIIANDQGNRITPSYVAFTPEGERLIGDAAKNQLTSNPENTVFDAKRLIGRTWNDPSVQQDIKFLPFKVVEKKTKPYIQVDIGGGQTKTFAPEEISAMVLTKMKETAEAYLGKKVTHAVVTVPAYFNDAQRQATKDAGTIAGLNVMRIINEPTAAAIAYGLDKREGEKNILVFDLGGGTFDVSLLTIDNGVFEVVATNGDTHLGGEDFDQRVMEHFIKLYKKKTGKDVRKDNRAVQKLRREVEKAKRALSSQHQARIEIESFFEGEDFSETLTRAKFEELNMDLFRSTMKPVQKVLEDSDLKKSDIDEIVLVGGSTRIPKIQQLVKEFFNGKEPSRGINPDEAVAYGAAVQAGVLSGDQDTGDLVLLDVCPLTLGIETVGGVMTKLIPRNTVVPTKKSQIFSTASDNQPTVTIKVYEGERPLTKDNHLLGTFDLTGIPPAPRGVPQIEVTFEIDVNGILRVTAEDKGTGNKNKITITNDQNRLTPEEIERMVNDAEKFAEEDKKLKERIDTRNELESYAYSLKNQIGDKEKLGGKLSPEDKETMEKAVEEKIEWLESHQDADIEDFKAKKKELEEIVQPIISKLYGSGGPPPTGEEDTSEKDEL

IP3R1, P29994 1-2750 (receptor), sequence (P29994 whole entry): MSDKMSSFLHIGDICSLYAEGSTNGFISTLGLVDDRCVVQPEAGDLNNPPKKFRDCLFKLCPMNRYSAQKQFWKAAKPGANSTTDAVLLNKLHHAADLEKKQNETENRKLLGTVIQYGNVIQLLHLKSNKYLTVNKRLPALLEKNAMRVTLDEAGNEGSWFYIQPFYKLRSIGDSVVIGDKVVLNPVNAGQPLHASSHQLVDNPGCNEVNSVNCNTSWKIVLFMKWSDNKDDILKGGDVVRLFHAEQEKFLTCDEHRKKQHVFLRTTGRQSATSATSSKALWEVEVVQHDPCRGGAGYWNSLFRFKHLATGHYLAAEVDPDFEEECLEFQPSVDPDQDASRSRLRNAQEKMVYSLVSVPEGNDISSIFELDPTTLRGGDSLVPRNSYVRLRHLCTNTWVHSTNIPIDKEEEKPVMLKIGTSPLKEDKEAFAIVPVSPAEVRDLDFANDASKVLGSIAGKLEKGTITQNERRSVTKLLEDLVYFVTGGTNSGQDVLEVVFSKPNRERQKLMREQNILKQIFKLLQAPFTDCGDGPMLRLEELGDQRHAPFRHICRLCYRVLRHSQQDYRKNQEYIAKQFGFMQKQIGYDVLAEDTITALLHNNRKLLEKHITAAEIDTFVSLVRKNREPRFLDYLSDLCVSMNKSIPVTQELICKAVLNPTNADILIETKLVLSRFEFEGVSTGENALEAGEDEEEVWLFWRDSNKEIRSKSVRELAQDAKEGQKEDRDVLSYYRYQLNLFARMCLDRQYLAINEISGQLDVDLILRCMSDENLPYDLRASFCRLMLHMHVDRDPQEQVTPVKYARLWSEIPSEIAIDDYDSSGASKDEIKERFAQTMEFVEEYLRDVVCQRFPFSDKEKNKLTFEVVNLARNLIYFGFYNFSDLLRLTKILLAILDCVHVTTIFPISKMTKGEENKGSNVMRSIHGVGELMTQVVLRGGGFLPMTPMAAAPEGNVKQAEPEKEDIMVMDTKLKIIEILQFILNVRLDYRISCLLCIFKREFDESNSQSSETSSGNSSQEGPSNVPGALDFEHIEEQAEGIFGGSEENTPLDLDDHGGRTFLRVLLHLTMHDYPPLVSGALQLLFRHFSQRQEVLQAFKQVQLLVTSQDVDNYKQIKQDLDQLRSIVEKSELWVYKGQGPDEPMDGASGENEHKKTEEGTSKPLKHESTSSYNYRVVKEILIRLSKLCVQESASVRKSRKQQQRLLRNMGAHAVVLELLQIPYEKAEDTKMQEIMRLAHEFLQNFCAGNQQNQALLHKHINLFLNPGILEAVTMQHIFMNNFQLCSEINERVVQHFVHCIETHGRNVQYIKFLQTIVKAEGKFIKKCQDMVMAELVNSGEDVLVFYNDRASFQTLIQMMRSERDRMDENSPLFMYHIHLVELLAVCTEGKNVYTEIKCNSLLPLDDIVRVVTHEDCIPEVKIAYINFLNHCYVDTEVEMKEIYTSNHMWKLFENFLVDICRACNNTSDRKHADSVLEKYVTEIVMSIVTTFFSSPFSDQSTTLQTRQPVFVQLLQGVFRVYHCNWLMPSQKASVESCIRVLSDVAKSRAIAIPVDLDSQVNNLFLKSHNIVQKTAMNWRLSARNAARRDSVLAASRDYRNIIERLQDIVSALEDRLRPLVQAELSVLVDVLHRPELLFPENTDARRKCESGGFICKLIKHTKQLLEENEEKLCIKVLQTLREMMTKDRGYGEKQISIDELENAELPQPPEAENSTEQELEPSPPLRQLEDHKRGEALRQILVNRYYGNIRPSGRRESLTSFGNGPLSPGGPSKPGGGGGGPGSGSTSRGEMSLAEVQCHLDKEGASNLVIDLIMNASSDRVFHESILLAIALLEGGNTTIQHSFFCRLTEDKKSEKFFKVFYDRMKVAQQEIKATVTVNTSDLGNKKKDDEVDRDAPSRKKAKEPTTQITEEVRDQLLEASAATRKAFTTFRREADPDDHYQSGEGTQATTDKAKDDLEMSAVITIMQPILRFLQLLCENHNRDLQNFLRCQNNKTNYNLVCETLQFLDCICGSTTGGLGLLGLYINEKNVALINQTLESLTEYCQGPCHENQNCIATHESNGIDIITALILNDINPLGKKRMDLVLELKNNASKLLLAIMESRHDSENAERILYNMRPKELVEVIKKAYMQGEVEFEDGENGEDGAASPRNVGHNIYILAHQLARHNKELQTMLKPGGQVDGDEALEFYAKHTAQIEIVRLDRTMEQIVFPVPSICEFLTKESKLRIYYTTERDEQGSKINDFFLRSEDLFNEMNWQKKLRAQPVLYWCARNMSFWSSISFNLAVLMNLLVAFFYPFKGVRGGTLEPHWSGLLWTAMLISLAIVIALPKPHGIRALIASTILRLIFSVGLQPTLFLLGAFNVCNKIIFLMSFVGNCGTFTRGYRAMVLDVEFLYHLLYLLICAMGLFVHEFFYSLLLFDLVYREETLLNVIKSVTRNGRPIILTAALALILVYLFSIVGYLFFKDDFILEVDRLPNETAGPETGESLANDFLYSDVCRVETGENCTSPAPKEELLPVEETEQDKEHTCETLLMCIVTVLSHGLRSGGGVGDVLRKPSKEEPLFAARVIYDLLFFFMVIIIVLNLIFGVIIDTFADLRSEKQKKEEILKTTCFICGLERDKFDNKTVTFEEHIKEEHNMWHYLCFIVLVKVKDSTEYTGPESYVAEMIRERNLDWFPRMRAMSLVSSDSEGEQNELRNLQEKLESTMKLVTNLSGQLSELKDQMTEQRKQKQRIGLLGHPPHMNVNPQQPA

Take IP3R1, P29994 1-2750 (receptor): the fold of IP3R1 co-immunoprecipitated with Grp78, APP KO lysate against WT lysate was found to be 1.49 fold.

Values taken from PMC10183039.
